Residue numbers refer to the chain shown, from its start.
What was measured:
[1] = target: T1, Rel RHR homodimer (UniProt P15307 8-297); experiment: SPR; slower off-rate than on …; EMSA: 10 mM Tris-HCl pH 7.5, 150 mM NaCl, 1 mM DTT, 1 mM EDTA, 5% glycerol, 80 ng/ul dI-dC, 200 ng/ul BSA, 4 C; off-rate with 100-fold unlabeled consensus. SPR: 10 mM HEPES pH 7.5, 150 mM NaCl, 3 mM EDTA, 0.005% Tween 20, 10 C; conditions: protein: recombinant; chain copies: 2; label: biotin
[2] = target: T1, Rel RHR homodimer; experiment: EMSA; EMSA: 10 mM Tris-HCl pH 7.5, 150 mM NaCl, 1 mM DTT, 1 mM EDTA, 5% glycerol, 80 ng/ul dI-dC, 200 ng/ul BSA, 4 C; off-rate with 100-fold unlabeled consensus. SPR: 10 mM HEPES pH 7.5, 150 mM NaCl, 3 mM EDTA, 0.005% Tween 20, 10 C; conditions: protein: recombinant; chain copies: 2; label: 32P
[3] = target: RelA RHR homodimer (UniProt Q04207 19-306); experiment: EMSA; only one dimer bound; EMSA: 10 mM Tris-HCl pH 7.5, 150 mM NaCl, 1 mM DTT, 1 mM EDTA, 5% glycerol, 80 ng/ul dI-dC, 200 ng/ul BSA, 4 C; off-rate with 100-fold unlabeled consensus. SPR: 10 mM HEPES pH 7.5, 150 mM NaCl, 3 mM EDTA, 0.005% Tween 20, 10 C; conditions: protein: recombinant; chain copies: 2; label: 32P
[4] = target: T1, Rel RHR homodimer; experiment: EMSA; three dimers bound simultaneously; EMSA: 10 mM Tris-HCl pH 7.5, 150 mM NaCl, 1 mM DTT, 1 mM EDTA, 5% glycerol, 80 ng/ul dI-dC, 200 ng/ul BSA, 4 C; off-rate with 100-fold unlabeled consensus. SPR: 10 mM HEPES pH 7.5, 150 mM NaCl, 3 mM EDTA, 0.005% Tween 20, 10 C; conditions: protein: recombinant; chain copies: 2; label: 32P
[5] = target: T1, Rel RHR homodimer; experiment: SPR; most stable of Il12b motifs; EMSA: 10 mM Tris-HCl pH 7.5, 150 mM NaCl, 1 mM DTT, 1 mM EDTA, 5% glycerol, 80 ng/ul dI-dC, 200 ng/ul BSA, 4 C; off-rate with 100-fold unlabeled consensus. SPR: 10 mM HEPES pH 7.5, 150 mM NaCl, 3 mM EDTA, 0.005% Tween 20, 10 C; conditions: protein: recombinant; chain copies: 2; label: biotin
[6] = target: T1, Rel RHR homodimer; experiment: SPR; less stable than κB2; EMSA: 10 mM Tris-HCl pH 7.5, 150 mM NaCl, 1 mM DTT, 1 mM EDTA, 5% glycerol, 80 ng/ul dI-dC, 200 ng/ul BSA, 4 C; off-rate with 100-fold unlabeled consensus. SPR: 10 mM HEPES pH 7.5, 150 mM NaCl, 3 mM EDTA, 0.005% Tween 20, 10 C; conditions: protein: recombinant; chain copies: 2; label: biotin
[7] = target: T1, Rel RHR homodimer; experiment: SPR; less stable than κB2 and κB1; EMSA: 10 mM Tris-HCl pH 7.5, 150 mM NaCl, 1 mM DTT, 1 mM EDTA, 5% glycerol, 80 ng/ul dI-dC, 200 ng/ul BSA, 4 C; off-rate with 100-fold unlabeled consensus. SPR: 10 mM HEPES pH 7.5, 150 mM NaCl, 3 mM EDTA, 0.005% Tween 20, 10 C; conditions: protein: recombinant; chain copies: 2; label: biotin

T1 sequence (P15307 8-297): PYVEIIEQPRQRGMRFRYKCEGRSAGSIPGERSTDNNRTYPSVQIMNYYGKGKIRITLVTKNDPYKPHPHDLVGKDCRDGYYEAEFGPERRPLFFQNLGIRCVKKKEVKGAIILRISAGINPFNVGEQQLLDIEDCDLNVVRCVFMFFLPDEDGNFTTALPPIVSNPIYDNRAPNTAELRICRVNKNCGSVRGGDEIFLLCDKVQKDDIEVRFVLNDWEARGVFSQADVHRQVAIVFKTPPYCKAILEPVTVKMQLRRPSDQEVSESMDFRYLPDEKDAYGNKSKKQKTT
Sequence of RelA RHR homodimer (Q04207 19-306): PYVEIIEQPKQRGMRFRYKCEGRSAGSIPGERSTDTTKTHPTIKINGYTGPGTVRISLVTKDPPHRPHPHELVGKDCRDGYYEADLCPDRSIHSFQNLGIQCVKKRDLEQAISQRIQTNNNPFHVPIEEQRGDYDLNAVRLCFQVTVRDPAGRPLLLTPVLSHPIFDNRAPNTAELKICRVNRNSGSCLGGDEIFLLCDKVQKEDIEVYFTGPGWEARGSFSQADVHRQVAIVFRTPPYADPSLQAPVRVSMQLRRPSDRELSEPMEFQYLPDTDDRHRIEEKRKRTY

B1: SPR GGGGGTTTTT (dsDNA)
DNA 1: CCTAACATCAGGGGGTTTTTTGATGTTAGG
DNA 2: CCTAACATCAAAAAACCCCCTGATGTTAGG
[1]
  binding result: binds

B2: κB1 EMSA probe (dsDNA)
DNA 1: CCTAACATCAGGAACTTCTTTGATGTTAGG
DNA 2: CCTAACATCAAAGAAGTTCCTGATGTTAGG
[2]
  binding result: binds

B3: κB2 EMSA probe (dsDNA)
DNA 1: CCTAACATCAAAAATTCCCCGATGTTAGG
DNA 2: CCTAACATCGGGGAATTTTTGATGTTAGG
[2]
  binding result: binds

B4: κB3 EMSA probe (dsDNA)
DNA 1: CCTAACATCAAGAATGTTTTTGATGTTAGG
DNA 2: CCTAACATCAAAAACATTCTTGATGTTAGG
[2]
  binding result: binds

B5: κB1+2+3 (dsDNA)
DNA 1: AGGAACTTCTTAAAATTCCCCCAGAATGTTTTGACA
DNA 2: TGTCAAAACATTCTGGGGGAATTTTAAGAAGTTCCT
[3]
  binding result: binds
[4]
  binding result: binds

B6: κB2 (SPR) (dsDNA)
DNA 1: B1 DNA 2 with A15T, C16T
DNA 2: B1 DNA 1 with G15A, T16A
[5]
  binding result: binds

B7: κB1 (SPR) (dsDNA)
DNA 1: B2 DNA 1
DNA 2: B2 DNA 2
[6]
  binding result: binds

B8: κB3 (SPR) (dsDNA)
DNA 1: B4 DNA 1
DNA 2: B4 DNA 2
[7]
  binding result: binds

— article PMC12043515, “Stepwise neofunctionalization of the NF-κB family member Rel during vertebrate evolution”
